Measured values reported in PMC8136821.

Molecular target: H. pylori RNase R (HpRNase R), recombinant, His-tagged (H. pylori)
Assay: AUC

Chain of H. pylori RNase R (HpRNase R), recombinant, His-tagged (H. pylori) (P56123 whole entry): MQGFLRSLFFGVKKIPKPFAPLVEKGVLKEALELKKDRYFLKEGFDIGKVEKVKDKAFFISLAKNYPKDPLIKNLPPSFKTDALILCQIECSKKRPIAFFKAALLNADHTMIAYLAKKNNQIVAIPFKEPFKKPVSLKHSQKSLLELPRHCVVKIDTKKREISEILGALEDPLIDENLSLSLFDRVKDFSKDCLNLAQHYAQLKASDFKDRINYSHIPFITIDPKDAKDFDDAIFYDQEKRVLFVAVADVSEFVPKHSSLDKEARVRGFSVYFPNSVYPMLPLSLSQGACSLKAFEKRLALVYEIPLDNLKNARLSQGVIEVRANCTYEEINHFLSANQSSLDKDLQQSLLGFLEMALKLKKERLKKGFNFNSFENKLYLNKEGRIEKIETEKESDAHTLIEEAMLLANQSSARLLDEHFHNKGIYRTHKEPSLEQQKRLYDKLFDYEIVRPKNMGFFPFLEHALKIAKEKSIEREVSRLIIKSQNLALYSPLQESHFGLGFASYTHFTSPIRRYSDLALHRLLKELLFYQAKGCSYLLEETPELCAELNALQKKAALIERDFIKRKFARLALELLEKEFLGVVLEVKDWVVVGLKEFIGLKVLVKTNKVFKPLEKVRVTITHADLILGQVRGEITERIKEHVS
Chain of RhpA DEAD-box RNA helicase of H. pylori, recombinant, His-tagged (enzyme) (B9XXL6 whole entry): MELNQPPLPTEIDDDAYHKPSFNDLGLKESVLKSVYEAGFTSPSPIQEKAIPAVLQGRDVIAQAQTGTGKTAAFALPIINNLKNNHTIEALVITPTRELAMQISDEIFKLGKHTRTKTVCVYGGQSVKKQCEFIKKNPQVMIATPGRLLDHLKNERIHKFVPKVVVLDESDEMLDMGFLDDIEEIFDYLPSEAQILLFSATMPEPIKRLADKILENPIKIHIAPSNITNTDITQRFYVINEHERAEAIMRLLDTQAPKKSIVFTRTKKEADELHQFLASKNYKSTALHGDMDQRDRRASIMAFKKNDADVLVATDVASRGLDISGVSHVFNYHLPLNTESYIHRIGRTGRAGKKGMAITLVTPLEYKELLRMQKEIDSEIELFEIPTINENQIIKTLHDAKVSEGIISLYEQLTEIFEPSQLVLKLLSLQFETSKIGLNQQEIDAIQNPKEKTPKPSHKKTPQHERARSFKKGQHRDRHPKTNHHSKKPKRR

Substance “RhpA DEAD-box RNA helicase of H. pylori, recombinant, His-tagged (enzyme)” has a stoichiometry N of 1.
